Measurements reported in article PMC5818262 (ACS chemical biology, 2012).
Read-outs that look alike come from different tables or passages of the source.

Columns and labels:
[1] = biological target: AckA (S. cattleya) (Streptantibioticus cattleyicolor, UniProt G8X369); assay type: biochemical
[2] = biological target: ACS (S. cattleya) (Streptantibioticus cattleyicolor, UniProt F8K1P4); assay type: biochemical
[3] = test system: Cit2; test: steady-state initial rates, Hill equation fit; assay type: biochemical, Streptantibioticus cattleyicolor; settings: read-out: K0.5
[4] = test system: Cit1; test: steady-state initial rates, Hill equation fit; assay type: biochemical, Streptantibioticus cattleyicolor; settings: read-out: K0.5
[5] = biological target: GltA (Escherichia coli, UniProt P0ABH7); test: steady-state initial rates, Hill equation fit; assay type: biochemical; settings: read-out: K0.5
[6] = test system: CC(=O)SCCNC(=O)CCNC(=O)[C@H](O)C(C)(C)COP(=O)(O)OP(=O)(O)OC[C@H]1O[C@@H](n2cnc3c(N)ncnc32)[C@H](O)[C@@H]1OP(=O)(O)O; test: steady-state initial rates, Hill equation fit; assay type: biochemical, Escherichia coli
[7] = substrate: CC(C)(COP(=O)(O)OP(=O)(O)OC[C@H]1O[C@@H](n2cnc3c(N)ncnc32)[C@H](O)[C@@H]1OP(=O)(O)O)[C@@H](O)C(=O)NCCC(=O)NCCSC(=O)CF; test: steady-state initial rates, Hill equation fit; assay type: biochemical, Streptomyces coelicolor
[8] = substrate: CC(=O)SCCNC(=O)CCNC(=O)[C@H](O)C(C)(C)COP(=O)(O)OP(=O)(O)OC[C@H]1O[C@@H](n2cnc3c(N)ncnc32)[C@H](O)[C@@H]1OP(=O)(O)O; test: steady-state initial rates, Hill equation fit; assay type: biochemical, Streptomyces coelicolor
[9] = substrate: CC(=O)O; test: purified protein

Chain of GltA (P0ABH7 whole entry): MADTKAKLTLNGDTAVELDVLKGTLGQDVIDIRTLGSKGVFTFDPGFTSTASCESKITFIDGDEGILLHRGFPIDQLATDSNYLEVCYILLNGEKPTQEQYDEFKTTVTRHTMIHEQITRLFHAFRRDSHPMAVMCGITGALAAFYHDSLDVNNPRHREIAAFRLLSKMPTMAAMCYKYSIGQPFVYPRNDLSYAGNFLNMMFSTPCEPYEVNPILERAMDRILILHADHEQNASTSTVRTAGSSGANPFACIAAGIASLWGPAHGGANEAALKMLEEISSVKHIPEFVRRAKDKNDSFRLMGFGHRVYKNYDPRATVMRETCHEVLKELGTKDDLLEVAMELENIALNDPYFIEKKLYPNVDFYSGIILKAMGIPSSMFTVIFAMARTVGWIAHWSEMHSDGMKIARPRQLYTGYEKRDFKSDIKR

Molecule: O=C(O)CF [compound 6, Fluoroacetate]
- Km [1]: 5700 µM
- Km [2]: 52000 µM

Molecule: CC(=O)SCCNC(=O)CCNC(=O)[C@H](O)C(C)(C)COP(=O)(O)OP(=O)(O)OC[C@H]1O[C@@H](n2cnc3c(N)ncnc32)[C@H](O)[C@@H]1OP(=O)(O)O [compound 10, Acetyl-CoA]
- Km [3]: 4.9 ± 0.4 µM
- Km [4]: 15 ± 2 µM

Molecule: CC(C)(COP(=O)(O)OP(=O)(O)OC[C@H]1O[C@@H](n2cnc3c(N)ncnc32)[C@H](O)[C@@H]1OP(=O)(O)O)[C@@H](O)C(=O)NCCC(=O)NCCSC(=O)CF [compound 9, Fluoroacetyl-CoA]
- Km [3]: 0.98 ± 0.05 µM
- Km [5]: 5.1 ± 0.3 µM
- Km [4]: 16 ± 4 µM

Molecule: O=C(O)CC(=O)C(=O)O [Oxaloacetate]
- Km [3]: 3.8 ± 0.4 µM
- Km [4]: 130 ± 20 µM

Molecule: GltA (Escherichia coli K-12)
- K0.5 [6]: 170 ± 60 µM
- kcat [6]: 80 ± 10 s⁻¹
- kcat/Km [6]: 500000 ± 200000 M⁻¹ s⁻¹

B1: CitA (Streptomyces coelicolor A3(2)) (protein)
chain: MSDNSVVLRYGDGEYTYPVIDSTVGDKGFDIGKLRAQTGLVTLDSGYGNTAAYKSAITYLDGEAGILRYRGYPIEQLAERSSFVEVAYLLINGELPTVDELSAFKGEITQHTLLHEDVKNFYKGFPRDAHPMAMLSSVVSALSTFYQDSHNPFDERQRNLSTIRLLAKLPTIAAYAYKKSIGHPFVYPANNLGYVENFLRMTFSVPAQEYELDPTVVAALDKLLILHADHEQNCSTSTVRLVGSSQANMFASISAGINALWGPLHGGANQSVLEMLEGIRDAGGDVDSFIRKVKNKEDGVRLMGFGHRVYKNFDPRAKIIKAAAHDVLSALGKSDELLDIALKLEEHALSDDYFVSRSLYPNVDFYTGLIYRAMGFPTEMFTVLFALGRLPGWIAQWHEMIKEPGSRIGRPRQIYTGVVERDFVPVEER
- K0.5 [7]: 15.4 ± 0.8 µM
- kcat/Km [7]: 126000 ± 8000 M⁻¹ s⁻¹
- K0.5 [8]: 47 ± 2 µM
- kcat [8]: 17.9 ± 0.4 s⁻¹
- kcat/Km [8]: 380000 ± 10000 M⁻¹ s⁻¹

B2: AckA (E. coli) (Escherichia coli K-12) (protein)
chain: MSSKLVLVLNCGSSSLKFAIIDAVNGEEYLSGLAECFHLPEARIKWKMDGNKQEAALGAGAAHSEALNFIVNTILAQKPELSAQLTAIGHRIVHGGEKYTSSVVIDESVIQGIKDAASFAPLHNPAHLIGIEEALKSFPQLKDKNVAVFDTAFHQTMPEESYLYALPYNLYKEHGIRRYGAHGTSHFYVTQEAAKMLNKPVEELNIITCHLGNGGSVSAIRNGKCVDTSMGLTPLEGLVMGTRSGDIDPAIIFHLHDTLGMSVDAINKLLTKESGLLGLTEVTSDCRYVEDNYATKEDAKRAMDVYCHRLAKYIGAYTALMDGRLDAVVFTGGIGENAAMVRELSLGKLGVLGFEVDHERNLAARFGKSGFINKEGTRPAVVIPTNEELVIAQDASRLTA
- Km [9]: (2.7 ± 0.2) × 10^4 μM
- kcat [9]: 1340 s⁻¹
- kcat/Km [9]: 50000 M⁻¹ s⁻¹
